Data published in patent publication US20230002488A1 (SYSTIMMUNE, published 2023).

Legend:
human EGFR [1] = target: T1, human EGFR (human, UniProt P00533 25-645); assay: BLI (Octet), GNC on AHC sensor, antigen as analyte, 1:1 fit
T1 construct: also called huEGFR; His-tagged human EGFR

human 4-1BB = target: T2, human 4-1BB (human, UniProt Q07011 24-186); assay: BLI (Octet), GNC on AHC sensor, 100 nM antigen as analyte, 1:1 fit
T2 construct: Bought antigen; construct not described

human PD-L1 = target: T3, human PD-L1 (human, UniProt Q9NZQ7 19-238); assay: as above
T3 construct: Bought antigen; construct not described

human EGFR [2] = target: T1, human EGFR; assay: BLI (Octet), GNC on AHC sensor, His-tagged human EGFR as analyte, global 1:1 fit
human CD19 = target: T4, human CD19 (human, UniProt P15391 20-291); assay: BLI (Octet), GNC on AHC sensor; strong binding, dissociation too slow to quantify KD
T4 sequence (looked up): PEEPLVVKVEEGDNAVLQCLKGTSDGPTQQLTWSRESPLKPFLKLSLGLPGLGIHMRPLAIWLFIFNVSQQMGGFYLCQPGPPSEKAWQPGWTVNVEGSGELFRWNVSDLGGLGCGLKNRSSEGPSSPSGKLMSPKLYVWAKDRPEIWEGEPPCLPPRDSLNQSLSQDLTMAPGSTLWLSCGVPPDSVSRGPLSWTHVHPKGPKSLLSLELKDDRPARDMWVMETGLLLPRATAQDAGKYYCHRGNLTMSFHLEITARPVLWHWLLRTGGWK

Kd (human EGFR [1]): 7.41 nM
Kd (human 4-1BB): 7.55 nM
Kd (human PD-L1): 0.407 nM
Kd (human EGFR [2]): 7.41 nM
binding result (human CD19): binds
B1: SI-55P9 (antibody, human IgG1, kappa)
heavy: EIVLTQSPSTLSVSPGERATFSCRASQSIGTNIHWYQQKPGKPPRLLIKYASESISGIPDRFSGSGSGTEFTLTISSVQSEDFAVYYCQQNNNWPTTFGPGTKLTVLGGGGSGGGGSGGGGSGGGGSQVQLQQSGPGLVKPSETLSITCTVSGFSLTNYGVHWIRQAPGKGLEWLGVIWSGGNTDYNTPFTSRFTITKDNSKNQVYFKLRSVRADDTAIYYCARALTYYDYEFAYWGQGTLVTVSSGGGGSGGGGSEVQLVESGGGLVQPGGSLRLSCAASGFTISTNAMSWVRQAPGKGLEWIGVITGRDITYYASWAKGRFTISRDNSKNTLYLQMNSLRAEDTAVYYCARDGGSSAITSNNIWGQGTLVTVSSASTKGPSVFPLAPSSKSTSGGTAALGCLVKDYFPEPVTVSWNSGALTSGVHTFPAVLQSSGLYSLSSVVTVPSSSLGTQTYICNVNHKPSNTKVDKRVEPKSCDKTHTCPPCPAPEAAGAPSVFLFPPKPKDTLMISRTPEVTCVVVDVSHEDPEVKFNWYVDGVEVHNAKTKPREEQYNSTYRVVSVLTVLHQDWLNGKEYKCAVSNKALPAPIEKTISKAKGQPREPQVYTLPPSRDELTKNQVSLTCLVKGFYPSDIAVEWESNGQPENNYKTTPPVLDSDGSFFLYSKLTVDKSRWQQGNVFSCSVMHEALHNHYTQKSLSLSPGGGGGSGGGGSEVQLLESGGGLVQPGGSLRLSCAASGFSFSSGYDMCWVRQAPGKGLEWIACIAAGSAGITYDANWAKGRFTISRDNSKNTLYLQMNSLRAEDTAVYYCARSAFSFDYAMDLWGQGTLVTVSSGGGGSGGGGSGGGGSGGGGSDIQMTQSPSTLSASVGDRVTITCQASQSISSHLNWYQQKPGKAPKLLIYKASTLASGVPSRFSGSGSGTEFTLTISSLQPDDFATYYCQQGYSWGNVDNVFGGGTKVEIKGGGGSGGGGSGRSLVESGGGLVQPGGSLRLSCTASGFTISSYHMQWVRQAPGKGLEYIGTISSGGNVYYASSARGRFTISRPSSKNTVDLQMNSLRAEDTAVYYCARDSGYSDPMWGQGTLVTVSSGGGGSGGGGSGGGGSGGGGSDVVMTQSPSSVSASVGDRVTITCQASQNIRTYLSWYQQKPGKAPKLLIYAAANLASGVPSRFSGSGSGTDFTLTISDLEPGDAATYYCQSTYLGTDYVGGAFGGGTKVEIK
light: ENVLTQSPASLSASPGERVTITCSASSSVSYMHWYQQKPGQAPKLWIYDTSKLASGVPSRFSGSGSGNDHTLTISSMEPEDFATYYCFQGSVYPFTFGQGTKVTVLGGGGSGGGGSGGGGSGGGGSQVTLKESGPGLVQPGQTLRLTCAFSGFSLSTSGMGVGWIRQPPGKGLEWLAHIWWDDDKRYNPALKSRLTISKDTSKNQVYLQMNSLDAEDTAVYYCARMELWSYYFDYWGQGTLVTVSSGGGGSGGGGSDVVMTQSPSTLSASVGDRVTINCQASESISSWLAWYQQKPGKAPKLLIYEASKLASGVPSRFSGSGSGTEFTLTISSLQPDDFATYYCQGYFYFISRTYVNSFGGGTKVEIKRTVAAPSVFIFPPSDEQLKSGTASVVCLLNNFYPREAKVQWKVDNALQSGNSQESVTEQDSKDSTYSLSSTLTLSKADYEKHKVYACEVTHQGLSSPVTKSFNRGEC
notes: Penta-specific: D1 humanized anti-EGFR H7 scFv, D2 CD3, D3 PD-L1, D4 4-1BB, D6 CD19
